Source: patent US20220143024A1, “METHODS OF USING IMIPRIDONES” (Board of Regents, The University of Texas System, priority 2019, published 2022)

How the values were obtained:
Assay in all cases: BioID-MS +ONC201
MRPL12 (human) = MRPL12 (human) (UniProt P52815)
MTHFD2 (human) = MTHFD2 (human) (UniProt P13995)
GTPBP3 (human) = GTPBP3 (human) (UniProt Q969Y2)
MRPS28 (human) = MRPS28 (human) (UniProt Q9Y2Q9)
GTPBP10 (human) = GTPBP10 (human) (UniProt A4D1E9)
OXA1L (human) = OXA1L (human) (UniProt Q15070)
ACADM (human) = ACADM (human) (UniProt P11310)
SDHAF3 (human) = SDHAF3 (human) (UniProt Q9NRP4)
Chain of SDHAF3 (human) (Q9NRP4 31-125 limits assumed): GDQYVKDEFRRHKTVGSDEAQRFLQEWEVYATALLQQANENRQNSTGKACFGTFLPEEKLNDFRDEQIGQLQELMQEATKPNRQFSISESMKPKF

PPA2 (human) = PPA2 (human) (UniProt Q9H2U2)
SSBP1 (human) = SSBP1 (human) (UniProt Q04837)
Chain of SSBP1 (human) (Q04837 17-148 limits assumed): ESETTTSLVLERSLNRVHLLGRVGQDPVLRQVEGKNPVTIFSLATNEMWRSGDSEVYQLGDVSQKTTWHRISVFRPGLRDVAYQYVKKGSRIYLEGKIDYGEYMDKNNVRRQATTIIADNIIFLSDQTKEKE

PYCR2 (human) = PYCR2 (human) (UniProt Q96C36)
GLS (human) = GLS (human) (UniProt O94925)
ALDH2 (human) = ALDH2 (human) (UniProt P05091)
MTIF2 (human) = MTIF2 (human) (UniProt P46199)
Chain of MTIF2 (human) (P46199 30-727 limits assumed): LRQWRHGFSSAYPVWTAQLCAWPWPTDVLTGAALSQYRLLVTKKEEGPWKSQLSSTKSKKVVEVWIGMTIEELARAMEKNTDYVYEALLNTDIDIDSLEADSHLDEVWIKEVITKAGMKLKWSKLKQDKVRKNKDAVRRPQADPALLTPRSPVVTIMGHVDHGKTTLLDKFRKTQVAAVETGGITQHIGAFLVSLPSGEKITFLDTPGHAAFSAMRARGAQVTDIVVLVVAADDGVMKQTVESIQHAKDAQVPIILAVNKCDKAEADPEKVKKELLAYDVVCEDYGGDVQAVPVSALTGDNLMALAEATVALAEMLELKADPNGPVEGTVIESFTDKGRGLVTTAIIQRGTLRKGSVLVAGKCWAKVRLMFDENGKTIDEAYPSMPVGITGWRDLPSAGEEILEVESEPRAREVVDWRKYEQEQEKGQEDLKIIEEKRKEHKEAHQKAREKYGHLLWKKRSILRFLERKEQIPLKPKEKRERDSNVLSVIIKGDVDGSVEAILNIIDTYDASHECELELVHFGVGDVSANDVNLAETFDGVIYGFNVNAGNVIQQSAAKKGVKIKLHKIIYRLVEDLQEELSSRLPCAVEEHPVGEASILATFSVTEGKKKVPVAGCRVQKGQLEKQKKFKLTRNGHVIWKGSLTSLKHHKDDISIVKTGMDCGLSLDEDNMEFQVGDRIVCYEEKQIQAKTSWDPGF

MRM3 (human) = MRM3 (human) (UniProt Q9HC36)
NDUFAF1 (human) = NDUFAF1 (human) (UniProt Q9Y375)
IDE (human) = IDE (human) (UniProt P14735)
NDUFA12 (human) = NDUFA12 (human) (UniProt Q9UI09)
Chain of NDUFA12 (human) (Q9UI09 whole entry): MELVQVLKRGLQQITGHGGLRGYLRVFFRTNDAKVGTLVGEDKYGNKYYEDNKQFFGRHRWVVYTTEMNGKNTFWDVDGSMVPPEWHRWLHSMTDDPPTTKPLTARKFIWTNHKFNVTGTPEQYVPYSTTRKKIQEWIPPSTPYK

LARS2 (human) = LARS2 (human) (UniProt Q15031)
ABHD10 (human) = ABHD10 (human) (UniProt Q9NUJ1)
ACAT1 (human) = ACAT1 (human) (UniProt P24752)
POLRMT (human) = POLRMT (human) (UniProt O00411)
TARS2 (human) = TARS2 (human) (UniProt Q9BW92)
Chain of TARS2 (human) (Q9BW92 whole entry): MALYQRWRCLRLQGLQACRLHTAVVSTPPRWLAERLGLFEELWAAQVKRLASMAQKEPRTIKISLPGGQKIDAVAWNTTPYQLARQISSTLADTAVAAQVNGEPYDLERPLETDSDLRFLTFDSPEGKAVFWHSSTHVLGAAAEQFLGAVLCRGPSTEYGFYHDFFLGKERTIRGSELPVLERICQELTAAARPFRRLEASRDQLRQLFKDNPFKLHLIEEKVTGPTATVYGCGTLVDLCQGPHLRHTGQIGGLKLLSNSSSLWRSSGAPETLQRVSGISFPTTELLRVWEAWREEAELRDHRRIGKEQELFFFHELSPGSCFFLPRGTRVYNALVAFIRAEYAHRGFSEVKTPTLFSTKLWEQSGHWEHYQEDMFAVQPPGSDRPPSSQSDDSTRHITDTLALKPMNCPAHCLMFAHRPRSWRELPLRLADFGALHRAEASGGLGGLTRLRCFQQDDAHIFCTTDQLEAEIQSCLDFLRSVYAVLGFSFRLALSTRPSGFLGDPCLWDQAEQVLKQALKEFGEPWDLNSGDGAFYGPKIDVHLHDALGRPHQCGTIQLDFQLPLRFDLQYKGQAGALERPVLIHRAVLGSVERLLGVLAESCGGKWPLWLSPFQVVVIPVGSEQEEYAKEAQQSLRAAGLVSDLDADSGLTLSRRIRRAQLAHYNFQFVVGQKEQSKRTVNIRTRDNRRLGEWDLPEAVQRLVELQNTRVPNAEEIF

PMPCA (human) = PMPCA (human) (UniProt Q10713)
PIN1 (human) = PIN1 (human) (UniProt Q13526)
ERAL1 (human) = ERAL1 (human) (UniProt O75616)
NIPSNAP2 (human) = NIPSNAP2 (human) (UniProt O75323)
NUDT19 (human) = NUDT19 (human) (UniProt A8MXV4)
POLG2 (human) = POLG2 (human) (UniProt Q9UHN1)
MICU2 (human) = MICU2 (human) (UniProt Q8IYU8)
NUBPL (human) = NUBPL (human) (UniProt Q8TB37)
PYCR1 (human) = PYCR1 (human) (UniProt P32322)
NARS2 (human) = NARS2 (human) (UniProt Q96I59)
MTRF1L (human) = MTRF1L (human) (UniProt Q9UGC7)
ACADSB (human) = ACADSB (human) (UniProt P45954)
CLIC4 (human) = CLIC4 (human) (UniProt Q9Y696)
POLG (human) = POLG (human) (UniProt P54098)
MRPS15 (human) = MRPS15 (human) (UniProt P82914)
MRPL40 (human) = MRPL40 (human) (UniProt Q9NQ50)
GUF1 (human) = GUF1 (human) (UniProt Q8N442)
FMC1 (human) = FMC1 (human) (UniProt Q96HJ9)
Chain of FMC1 (human) (Q96HJ9 whole entry): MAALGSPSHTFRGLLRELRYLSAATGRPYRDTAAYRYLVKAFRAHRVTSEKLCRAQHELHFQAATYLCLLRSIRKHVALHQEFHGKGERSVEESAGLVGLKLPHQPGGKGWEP

ADCK3 (human) = ADCK3 (human) (UniProt Q8NI60)
MTRF1 (human) = MTRF1 (human) (UniProt O75570)
Chain of MTRF1 (human) (O75570 62-445 limits assumed): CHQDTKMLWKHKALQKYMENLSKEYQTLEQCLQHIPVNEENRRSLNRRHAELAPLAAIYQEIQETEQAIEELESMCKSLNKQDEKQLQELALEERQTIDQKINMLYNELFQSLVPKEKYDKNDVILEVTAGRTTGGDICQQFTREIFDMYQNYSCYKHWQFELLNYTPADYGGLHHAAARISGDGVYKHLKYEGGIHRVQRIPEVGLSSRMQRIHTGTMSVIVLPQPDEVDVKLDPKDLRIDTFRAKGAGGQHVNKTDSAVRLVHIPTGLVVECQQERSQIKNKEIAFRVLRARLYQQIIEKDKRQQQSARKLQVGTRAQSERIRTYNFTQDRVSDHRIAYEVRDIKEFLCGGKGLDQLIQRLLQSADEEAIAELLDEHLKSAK

RG9MTD1 (human) = RG9MTD1 (human) (UniProt Q7L0Y3)
Chain of RG9MTD1 (human) (Q7L0Y3 40-403 limits assumed): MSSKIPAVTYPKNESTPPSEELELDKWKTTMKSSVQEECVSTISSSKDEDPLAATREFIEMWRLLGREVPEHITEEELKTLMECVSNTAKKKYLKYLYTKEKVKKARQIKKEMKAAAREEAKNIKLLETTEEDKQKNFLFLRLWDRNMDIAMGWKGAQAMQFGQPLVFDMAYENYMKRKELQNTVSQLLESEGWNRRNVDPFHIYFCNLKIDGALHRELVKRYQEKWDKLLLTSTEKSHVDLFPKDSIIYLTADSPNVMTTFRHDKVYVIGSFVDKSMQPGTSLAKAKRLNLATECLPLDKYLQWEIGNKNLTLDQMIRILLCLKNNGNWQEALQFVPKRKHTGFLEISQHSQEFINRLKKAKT

GCDH (human) = GCDH (human) (UniProt Q92947)
Chain of GCDH (human) (Q92947 45-438 limits assumed): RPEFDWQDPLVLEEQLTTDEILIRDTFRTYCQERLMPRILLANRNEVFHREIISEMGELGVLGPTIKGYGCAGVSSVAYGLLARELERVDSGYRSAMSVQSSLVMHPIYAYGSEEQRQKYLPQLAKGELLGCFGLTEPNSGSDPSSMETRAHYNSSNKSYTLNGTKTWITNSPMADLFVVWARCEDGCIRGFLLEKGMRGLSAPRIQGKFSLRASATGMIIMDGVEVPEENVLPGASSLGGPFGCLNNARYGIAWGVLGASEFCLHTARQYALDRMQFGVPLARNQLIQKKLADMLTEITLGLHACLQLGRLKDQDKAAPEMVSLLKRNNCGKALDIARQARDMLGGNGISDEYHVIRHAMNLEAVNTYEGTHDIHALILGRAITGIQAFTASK

C8orf82 (human) = C8orf82 (human) (UniProt Q6P1X6)
Chain of C8orf82 (human) (Q6P1X6 whole entry): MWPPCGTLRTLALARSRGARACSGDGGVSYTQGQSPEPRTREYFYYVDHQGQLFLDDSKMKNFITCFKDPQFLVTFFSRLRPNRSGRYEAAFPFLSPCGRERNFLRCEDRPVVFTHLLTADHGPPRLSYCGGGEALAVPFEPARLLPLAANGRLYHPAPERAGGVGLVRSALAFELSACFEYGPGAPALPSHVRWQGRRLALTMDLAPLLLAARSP

CRAT (human) = CRAT (human) (UniProt P43155)
Chain of CRAT (human) (P43155 whole entry): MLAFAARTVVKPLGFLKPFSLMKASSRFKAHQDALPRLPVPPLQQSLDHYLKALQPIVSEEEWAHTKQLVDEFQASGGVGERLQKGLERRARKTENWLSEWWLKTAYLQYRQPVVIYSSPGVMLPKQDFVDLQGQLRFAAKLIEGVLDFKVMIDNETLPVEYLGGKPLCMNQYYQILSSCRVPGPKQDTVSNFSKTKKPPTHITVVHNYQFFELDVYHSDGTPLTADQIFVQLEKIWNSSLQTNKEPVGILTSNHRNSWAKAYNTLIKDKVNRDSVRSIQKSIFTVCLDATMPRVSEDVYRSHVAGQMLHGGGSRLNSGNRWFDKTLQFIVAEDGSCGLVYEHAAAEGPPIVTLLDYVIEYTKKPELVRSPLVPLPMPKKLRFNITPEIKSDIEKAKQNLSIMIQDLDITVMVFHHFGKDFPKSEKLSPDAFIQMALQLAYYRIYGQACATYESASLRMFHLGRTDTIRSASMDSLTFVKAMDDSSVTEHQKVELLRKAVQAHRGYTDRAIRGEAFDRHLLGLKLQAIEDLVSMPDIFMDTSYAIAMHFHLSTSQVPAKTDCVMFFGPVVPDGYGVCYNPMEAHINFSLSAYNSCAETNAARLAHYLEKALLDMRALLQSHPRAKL

NFS1 (human) = NFS1 (human) (UniProt Q9Y697)
TAC01 (human) = TAC01 (human) (UniProt Q9BSH4)
SLC27A2 (human) = SLC27A2 (human) (UniProt O14975)
SLIRP (human) = SLIRP (human) (UniProt Q9GZT3)

Chain of GTPBP3 (human) (Q969Y2 21-492 limits assumed): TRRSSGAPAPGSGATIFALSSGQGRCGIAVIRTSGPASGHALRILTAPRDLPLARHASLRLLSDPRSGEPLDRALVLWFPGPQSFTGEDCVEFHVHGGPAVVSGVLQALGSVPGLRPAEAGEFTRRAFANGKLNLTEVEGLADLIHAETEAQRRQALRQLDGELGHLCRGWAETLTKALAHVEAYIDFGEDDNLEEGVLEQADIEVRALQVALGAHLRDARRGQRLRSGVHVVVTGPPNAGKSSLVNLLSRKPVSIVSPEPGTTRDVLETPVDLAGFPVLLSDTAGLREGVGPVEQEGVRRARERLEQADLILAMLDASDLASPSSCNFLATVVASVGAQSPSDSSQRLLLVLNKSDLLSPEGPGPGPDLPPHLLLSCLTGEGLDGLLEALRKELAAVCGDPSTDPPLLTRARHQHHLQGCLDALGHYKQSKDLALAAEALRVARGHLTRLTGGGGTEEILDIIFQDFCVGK
Chain of GTPBP10 (human) (A4D1E9 whole entry): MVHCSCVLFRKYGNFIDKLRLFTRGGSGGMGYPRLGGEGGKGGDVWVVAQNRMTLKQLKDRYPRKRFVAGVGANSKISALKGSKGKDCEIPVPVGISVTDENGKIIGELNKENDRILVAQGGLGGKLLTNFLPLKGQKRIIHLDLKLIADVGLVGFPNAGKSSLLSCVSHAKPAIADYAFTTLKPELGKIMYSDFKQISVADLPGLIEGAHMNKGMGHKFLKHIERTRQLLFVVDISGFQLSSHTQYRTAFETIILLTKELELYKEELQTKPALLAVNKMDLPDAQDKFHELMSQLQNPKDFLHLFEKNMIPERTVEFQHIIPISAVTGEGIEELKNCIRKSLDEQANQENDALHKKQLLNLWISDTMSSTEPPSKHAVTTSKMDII

- Log2 Fold change (vs control) (MRPL12 (human)): -3.32 log2
- Log2 Fold change (vs control) (MTHFD2 (human)): -1.43 log2
- Log2 Fold change (vs control) (GTPBP3 (human)): -2.58 log2
- Log2 Fold change (vs control) (MRPS28 (human)): -1.24 log2
- Log2 Fold change (vs control) (GTPBP10 (human)): -4.91 log2
- Log2 Fold change (vs control) (OXA1L (human)): -3 log2
- Log2 Fold change (vs control) (ACADM (human)): -1.06 log2
- Log2 Fold change (vs control) (SDHAF3 (human)): -3.82 log2
- Log2 Fold change (vs control) (PPA2 (human)): -1.38 log2
- Log2 Fold change (vs control) (SSBP1 (human)): 0.07 log2
- Log2 Fold change (vs control) (PYCR2 (human)): -0.21 log2
- Log2 Fold change (vs control) (GLS (human)): -0.71 log2
- Log2 Fold change (vs control) (ALDH2 (human)): -0.17 log2
- Log2 Fold change (vs control) (MTIF2 (human)): -5.55 log2
- Log2 Fold change (vs control) (MRM3 (human)): -1.62 log2
- Log2 Fold change (vs control) (NDUFAF1 (human)): -4.32 log2
- Log2 Fold change (vs control) (IDE (human)): -1.97 log2
- Log2 Fold change (vs control) (NDUFA12 (human)): -7.55 log2
- Log2 Fold change (vs control) (LARS2 (human)): -0.14 log2
- Log2 Fold change (vs control) (ABHD10 (human)): -1.53 log2
- Log2 Fold change (vs control) (ACAT1 (human)): -0.59 log2
- Log2 Fold change (vs control) (POLRMT (human)): -2.95 log2
- Log2 Fold change (vs control) (TARS2 (human)): -1.95 log2
- Log2 Fold change (vs control) (PMPCA (human)): -1.21 log2
- Log2 Fold change (vs control) (PIN1 (human)): -0.11 log2
- Log2 Fold change (vs control) (ERAL1 (human)): -6.19 log2
- Log2 Fold change (vs control) (NIPSNAP2 (human)): -0.31 log2
- Log2 Fold change (vs control) (NUDT19 (human)): -3.1 log2
- Log2 Fold change (vs control) (POLG2 (human)): -5.29 log2
- Log2 Fold change (vs control) (MICU2 (human)): -4.31 log2
- Log2 Fold change (vs control) (NUBPL (human)): -4.17 log2
- Log2 Fold change (vs control) (PYCR1 (human)): -2.16 log2
- Log2 Fold change (vs control) (NARS2 (human)): -1.36 log2
- Log2 Fold change (vs control) (MTRF1L (human)): -3.81 log2
- Log2 Fold change (vs control) (ACADSB (human)): -1.76 log2
- Log2 Fold change (vs control) (CLIC4 (human)): -0.49 log2
- Log2 Fold change (vs control) (POLG (human)): -4.32 log2
- Log2 Fold change (vs control) (MRPS15 (human)): -4.91 log2
- Log2 Fold change (vs control) (MRPL40 (human)): -5.09 log2
- Log2 Fold change (vs control) (GUF1 (human)): -4.04 log2
- Log2 Fold change (vs control) (FMC1 (human)): -6.86 log2
- Log2 Fold change (vs control) (ADCK3 (human)): -1.91 log2
- Log2 Fold change (vs control) (MTRF1 (human)): -4.25 log2
- Log2 Fold change (vs control) (RG9MTD1 (human)): -1.3 log2
- Log2 Fold change (vs control) (GCDH (human)): -0.17 log2
- Log2 Fold change (vs control) (C8orf82 (human)): -1.19 log2
- Log2 Fold change (vs control) (CRAT (human)): -4 log2
- Log2 Fold change (vs control) (NFS1 (human)): 0.55 log2
- Log2 Fold change (vs control) (TAC01 (human)): -4.82 log2
- Log2 Fold change (vs control) (SLC27A2 (human)): -1.81 log2
- Log2 Fold change (vs control) (SLIRP (human)): -0.25 log2
Substance: FlagBirA-ClpP (WT) (from UniProt P06709 1-321; Q16740 57-277) (enzyme)
